Reference: publication PMC9352680, “A comprehensive thermodynamic model for RNA binding by the Saccharomyces cerevisiae Pumilio protein PUF4”

T1: PUF4 RNA-binding domain (Saccharomyces cerevisiae, UniProt P25339 537-888)
T1 sequence: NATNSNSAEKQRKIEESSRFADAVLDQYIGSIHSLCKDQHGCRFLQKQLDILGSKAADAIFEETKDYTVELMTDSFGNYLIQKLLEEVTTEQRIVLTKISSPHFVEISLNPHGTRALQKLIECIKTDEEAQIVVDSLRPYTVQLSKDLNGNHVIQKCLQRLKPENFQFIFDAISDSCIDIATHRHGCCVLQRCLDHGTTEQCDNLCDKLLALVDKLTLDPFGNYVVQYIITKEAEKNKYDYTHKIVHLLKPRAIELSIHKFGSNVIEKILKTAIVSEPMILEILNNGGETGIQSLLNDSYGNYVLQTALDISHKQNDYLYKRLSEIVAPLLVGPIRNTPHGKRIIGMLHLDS


Molecular target: T1, PUF4 RNA-binding domain
Assay: Mg; RNA-MaP; 20 mM Na-HEPES pH 7.4, 30 mM KOAc, 0.75 mM MgCl2, 0.1% Tween-20, 5% glycerol, 0.1 mg/mL BSA, 2 mM DTT; 25 C; 0.0125-409.6 nM protein
Settings: tags: N-His6-TEV cleaved; C-SNAP kept, Cy3B-labelled; label: tethered on chip by stalled RNA polymerase

Binder	Kd [nM]
UCUCUUUGUAAUCGACUCUCUU (ssRNA) [Ic_S1_P5E.1_K5.1_C5.1_H5.1_A5.1_[T5A]_[A7C]_F5.1_[T8G]_[T9A]_[A10C]_T5.1]	1540
UCUCUUUGUAGCUGUAUCUCUU (ssRNA) [Ic_S1_P5E.1_K5.1_C5.1_H5.1_A5.1_[T5G]_[T6C]_[A7T]_F5.1_[T8G]_T5.1]	47.8
UCUCUUUGUAGCCCUUUCUCUU (ssRNA) [Ic_S1_P5E.1_K5.1_C5.1_H5.1_A5.1_[T5G]_[T6C]_[A7C]_F5.1_[T8C]_[A10T]_T5.1]	> 2300
UCUCUUUGUAACUAGUUCUCUU (ssRNA) [Ic_S1_P5E.1_K5.1_C5.1_H5.1_A5.1_[T5A]_[T6C]_[A7T]_F5.1_[T8A]_[T9G]_[A10T]_T5.1]	642
UCUCUUUGUACAGCCCUCUCUU (ssRNA) [Ic_S1_P5E.1_K5.1_C5.1_H5.1_A5.1_[T5C]_[T6A]_[A7G]_F5.1_[T8C]_[T9C]_[A10C]_T5.1]	142
UCUCUUUGUACGUUGUUCUCUU (ssRNA) [Ic_S1_P5E.1_K5.1_C5.1_H5.1_A5.1_[T5C]_[T6G]_[A7T]_F5.1_[T9G]_[A10T]_T5.1]	34.8
UCUCUUUGUACCUGGCUCUCUU (ssRNA) [Ic_S1_P5E.1_K5.1_C5.1_H5.1_A5.1_[T5C]_[T6C]_[A7T]_F5.1_[T8G]_[T9G]_[A10C]_T5.1]	489
UCUCUUUGUAUUCGAUUCUCUU (ssRNA) [Ic_S1_P5E.1_K5.1_C5.1_H5.1_A5.1_[A7C]_F5.1_[T8G]_[T9A]_[A10T]_T5.1]	466
UCUCUUUGUAAAUCCGUCUCUU (ssRNA) [Ic_S1_P5E.1_K5.1_C5.1_H5.1_A5.1_[T5A]_[T6A]_[A7T]_F5.1_[T8C]_[T9C]_[A10G]_T5.1]	747
UCUCUUUGUAAUUUAGUCUCUU (ssRNA) [Ic_S1_P5E.1_K5.1_C5.1_H5.1_A5.1_[T5A]_[A7T]_F5.1_[T9A]_[A10G]_T5.1]	3.08
UCUCUUUGUAAACUGGUCUCUU (ssRNA) [Ic_S1_P5E.1_K5.1_C5.1_H5.1_A5.1_[T5A]_[T6A]_[A7C]_F5.1_[T9G]_[A10G]_T5.1]	16.9
UCUCUUUGUACACACGUCUCUU (ssRNA) [Ic_S1_P5E.1_K5.1_C5.1_H5.1_A5.1_[T5C]_[T6A]_[A7C]_F5.1_[T8A]_[T9C]_[A10G]_T5.1]	122
UCUCUUUGUAGCGUUAUCUCUU (ssRNA) [Ic_S1_P5E.1_K5.1_C5.1_H5.1_A5.1_[T5G]_[T6C]_[A7G]_F5.1_T5.1]	36.4
UCUCUUUGUAACAUGCUCUCUU (ssRNA) [Ic_S1_P5E.1_K5.1_C5.1_H5.1_A5.1_[T5A]_[T6C]_F5.1_[T9G]_[A10C]_T5.1]	13.2
UCUCUUUGUACCUGCCUCUCUU (ssRNA) [Ic_S1_P5E.1_K5.1_C5.1_H5.1_A5.1_[T5C]_[T6C]_[A7T]_F5.1_[T8G]_[T9C]_[A10C]_T5.1]	353
UCUCUUUGUAGCCCUAUCUCUU (ssRNA) [Ic_S1_P5E.1_K5.1_C5.1_H5.1_A5.1_[T5G]_[T6C]_[A7C]_F5.1_[T8C]_T5.1]	113
UCUCUUUGUAUUUUCGUCUCUU (ssRNA) [Ic_S1_P5E.1_K5.1_C5.1_H5.1_A5.1_[A7T]_F5.1_[T9C]_[A10G]_T5.1]	37.6
UCUCUUUGUAUCCGUGUCUCUU (ssRNA) [Ic_S1_P5E.1_K5.1_C5.1_H5.1_A5.1_[T6C]_[A7C]_F5.1_[T8G]_[A10G]_T5.1]	1060
UCUCUUUGUAUGUCCUUCUCUU (ssRNA) [Ic_S1_P5E.1_K5.1_C5.1_H5.1_A5.1_[T6G]_[A7T]_F5.1_[T8C]_[T9C]_[A10T]_T5.1]	88.1
UCUCUUUGUAAAAACCUCUCUU (ssRNA) [Ic_S1_P5E.1_K5.1_C5.1_H5.1_A5.1_[T5A]_[T6A]_F5.1_[T8A]_[T9C]_[A10C]_T5.1]	1140

Binder	Kd [nM]
UCUCUUUGUAUCAAUUUCUCUU (ssRNA) [Ic_S1_P5E.1_K5.1_C5.1_H5.1_A5.1_[T6C]_F5.1_[T8A]_[A10T]_T5.1]	85.2
UCUCUUUGUAACCUAUUCUCUU (ssRNA) [Ic_S1_P5E.1_K5.1_C5.1_H5.1_A5.1_[T5A]_[T6C]_[A7C]_F5.1_[T9A]_[A10T]_T5.1]	12.8
UCUCUUUGUAAAUUCUUCUCUU (ssRNA) [Ic_S1_P5E.1_K5.1_C5.1_H5.1_A5.1_[T5A]_[T6A]_[A7T]_F5.1_[T9C]_[A10T]_T5.1]	20.1
UCUCUUUGUAUGUUUCUCUU (ssRNA) [Ic_S1_P3E.1_K3.1_C3.1_H3.1_A3.1_[A6G]_F3.1_[A8T]_T3.1]	49.3
UCUCUUUGUACUGGCUUCUCUU (ssRNA) [Ic_S1_P5E.1_K5.1_C5.1_H5.1_A5.1_[T5C]_[A7G]_F5.1_[T8G]_[T9C]_[A10T]_T5.1]	991
UCUCUUUGUACCUCGAUCUCUU (ssRNA) [Ic_S1_P5E.1_K5.1_C5.1_H5.1_A5.1_[T5C]_[T6C]_[A7T]_F5.1_[T8C]_[T9G]_T5.1]	660
UCUCUUUGUAUCUCUCUCUU (ssRNA) [Ic_S1_P3E.1_K3.1_C3.1_H3.1_A3.1_[A6C]_F3.1_[A8C]_T3.1]	97.4
UCUCUUUGUACAUGUUUCUCUU (ssRNA) [Ic_S1_P5E.1_K5.1_C5.1_H5.1_A5.1_[T5C]_[T6A]_[A7T]_F5.1_[T8G]_[A10T]_T5.1]	27.2
UCUCUUUGUAUCUCCGUCUCUU (ssRNA) [Ic_S1_P5E.1_K5.1_C5.1_H5.1_A5.1_[T6C]_[A7T]_F5.1_[T8C]_[T9C]_[A10G]_T5.1]	484
UCUCUUUGUAACCUAGUCUCUU (ssRNA) [Ic_S1_P5E.1_K5.1_C5.1_H5.1_A5.1_[T5A]_[T6C]_[A7C]_F5.1_[T9A]_[A10G]_T5.1]	4.64
UCUCUUUGUAUUGUCUUCUCUU (ssRNA) [Ic_S1_P5E.1_K5.1_C5.1_H5.1_A5.1_[A7G]_F5.1_[T9C]_[A10T]_T5.1]	101
UCUCUUUGUAUCGCCGUCUCUU (ssRNA) [Ic_S1_P5E.1_K5.1_C5.1_H5.1_A5.1_[T6C]_[A7G]_F5.1_[T8C]_[T9C]_[A10G]_T5.1]	> 2300
UCUCUUUGUAAGCUUUUCUCUU (ssRNA) [Ic_S1_P5E.1_K5.1_C5.1_H5.1_A5.1_[T5A]_[T6G]_[A7C]_F5.1_[A10T]_T5.1]	643
UCUCUUUGUAUGGCUGUCUCUU (ssRNA) [Ic_S1_P5E.1_K5.1_C5.1_H5.1_A5.1_[T6G]_[A7G]_F5.1_[T8C]_[A10G]_T5.1]	2120
UCUCUUUGUAUUUCUCUCUU (ssRNA) [Ic_S1_P3E.1_K3.1_C3.1_H3.1_A3.1_[A6T]_F3.1_[A8C]_T3.1]	111
UCUCUUUGUAGCAACCUCUCUU (ssRNA) [Ic_S1_P5E.1_K5.1_C5.1_H5.1_A5.1_[T5G]_[T6C]_F5.1_[T8A]_[T9C]_[A10C]_T5.1]	1850
UCUCUUUGUAUCUUUCUCUU (ssRNA) [Ic_S1_P3E.1_K3.1_C3.1_H3.1_A3.1_[A6C]_F3.1_[A8T]_T3.1]	32.3
UCUCUUUGUAAACGCUUCUCUU (ssRNA) [Ic_S1_P5E.1_K5.1_C5.1_H5.1_A5.1_[T5A]_[T6A]_[A7C]_F5.1_[T8G]_[T9C]_[A10T]_T5.1]	854
UCUCUUUGUAACUGACUCUCUU (ssRNA) [Ic_S1_P5E.1_K5.1_C5.1_H5.1_A5.1_[T5A]_[T6C]_[A7T]_F5.1_[T8G]_[T9A]_[A10C]_T5.1]	448
UCUCUUUGUAUGCCGGUCUCUU (ssRNA) [Ic_S1_P5E.1_K5.1_C5.1_H5.1_A5.1_[T6G]_[A7C]_F5.1_[T8C]_[T9G]_[A10G]_T5.1]	> 2300

Binder	Kd [nM]
UCUCUUUGUACCUUUAUCUCUU (ssRNA) [Ic_S1_P5E.1_K5.1_C5.1_H5.1_A5.1_[T5C]_[T6C]_[A7T]_F5.1_T5.1]	6.83
UCUCUUUGUAGCCUAUUCUCUU (ssRNA) [Ic_S1_P5E.1_K5.1_C5.1_H5.1_A5.1_[T5G]_[T6C]_[A7C]_F5.1_[T9A]_[A10T]_T5.1]	17.1
UCUCUUUGUAUACCGAUCUCUU (ssRNA) [Ic_S1_P5E.1_K5.1_C5.1_H5.1_A5.1_[T6A]_[A7C]_F5.1_[T8C]_[T9G]_T5.1]	450
UCUCUUUGUACAUGUAUCUCUU (ssRNA) [Ic_S1_P5E.1_K5.1_C5.1_H5.1_A5.1_[T5C]_[T6A]_[A7T]_F5.1_[T8G]_T5.1]	8.91
UCUCUUUGUAUAACCGUCUCUU (ssRNA) [Ic_S1_P5E.1_K5.1_C5.1_H5.1_A5.1_[T6A]_F5.1_[T8C]_[T9C]_[A10G]_T5.1]	152
UCUCUUUGUAGCCUACUCUCUU (ssRNA) [Ic_S1_P5E.1_K5.1_C5.1_H5.1_A5.1_[T5G]_[T6C]_[A7C]_F5.1_[T9A]_[A10C]_T5.1]	48.9
UCUCUUUGUACGUGCCUCUCUU (ssRNA) [Ic_S1_P5E.1_K5.1_C5.1_H5.1_A5.1_[T5C]_[T6G]_[A7T]_F5.1_[T8G]_[T9C]_[A10C]_T5.1]	583
UCUCUUUGUACUUCUAUCUCUU (ssRNA) [Ic_S1_P5E.1_K5.1_C5.1_H5.1_A5.1_[T5C]_[A7T]_F5.1_[T8C]_T5.1]	7.77
UCUCUUUGUAUAUGAUUCUCUU (ssRNA) [Ic_S1_P5E.1_K5.1_C5.1_H5.1_A5.1_[T6A]_[A7T]_F5.1_[T8G]_[T9A]_[A10T]_T5.1]	12.1
UCUCUUUGUAUCUCGCUCUCUU (ssRNA) [Ic_S1_P5E.1_K5.1_C5.1_H5.1_A5.1_[T6C]_[A7T]_F5.1_[T8C]_[T9G]_[A10C]_T5.1]	160
UCUCUUUGUAUGUCUCUCUU (ssRNA) [Ic_S1_P3E.1_K3.1_C3.1_H3.1_A3.1_[A6G]_F3.1_[A8C]_T3.1]	677
UCUCUUUGUACUACACUCUCUU (ssRNA) [Ic_S1_P5E.1_K5.1_C5.1_H5.1_A5.1_[T5C]_F5.1_[T8C]_[T9A]_[A10C]_T5.1]	455
UCUCUUUGUAAACACUUCUCUU (ssRNA) [Ic_S1_P5E.1_K5.1_C5.1_H5.1_A5.1_[T5A]_[T6A]_[A7C]_F5.1_[T8A]_[T9C]_[A10T]_T5.1]	666
UCUCUUUGUACGUCACUCUCUU (ssRNA) [Ic_S1_P5E.1_K5.1_C5.1_H5.1_A5.1_[T5C]_[T6G]_[A7T]_F5.1_[T8C]_[T9A]_[A10C]_T5.1]	580
UCUCUUUGUAGCUUUUUCUCUU (ssRNA) [Ic_S1_P5E.1_K5.1_C5.1_H5.1_A5.1_[T5G]_[T6C]_[A7T]_F5.1_[A10T]_T5.1]	516
UCUCUUUGUAGUUCCUUCUCUU (ssRNA) [Ic_S1_P5E.1_K5.1_C5.1_H5.1_A5.1_[T5G]_[A7T]_F5.1_[T8C]_[T9C]_[A10T]_T5.1]	1760
UCUCUUUGUACUCCACUCUCUU (ssRNA) [Ic_S1_P5E.1_K5.1_C5.1_H5.1_A5.1_[T5C]_[A7C]_F5.1_[T8C]_[T9A]_[A10C]_T5.1]	500
UCUCUUUGUAUUUGUCUCUU (ssRNA) [Ic_S1_P3E.1_K3.1_C3.1_H3.1_A3.1_[A6T]_F3.1_[A8G]_T3.1]	106
UCUCUUUGUAAACCUCUCUCUU (ssRNA) [Ic_S1_P5E.1_K5.1_C5.1_H5.1_A5.1_[T5A]_[T6A]_[A7C]_F5.1_[T8C]_[A10C]_T5.1]	548
